The record followed here is publication PMC2794250, “An MDM2 antagonist (MI-319) restores p53 functions and increases the life span of orally treated follicular lymphoma bearing animals” (2009).

In the assay the target is recombinant His-tagged MDM2 (amino acids 1-118) (human) (UniProt Q00987). Description: FP; competition with PMDM6-F.

In the case of “natural p53 peptide (from UniProt P04637)”, the Ki was 6.7 µM.

One may read the Ki as a dissociation constant, usually derived from enzyme kinetics or from competition with a known ligand.
